# Results taken from the nanobody polyreactivity screen of Harvey et al. (2022).
# Assay: yeast display, Sf9 membrane polyspecificity reagent, FACS + sequencing; frameworks hold sequencing errors
# How it was run: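 Galactose-induced (36–48 hours) yeast carrying a synthetic nanobody display library were exposed to 10% biotinylated, detergent-solubilized Sf9 membrane reagent at 4 °C for 1 hour. FACS followed streptavidin microbead enrichment, using low and high (top ~1%) gates for expression (anti-HA) and reagent binding (streptavidin). Colony PCR, MiSeq 2 × 250 sequencing and CDR-length filtering followed. Labels for polyreactivity reflect the gate of origin.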
row,Sequence,polyreactivity (PSR sort gate)
1,QVQLVESGGGLVQAGGSLRLTCDASGSSFIFNAMGWSRQAHGIEMELVAGITRRVDSTFYADSVKGRFTISRDNAKNTVYLQMTSLKPEDTGVFFFAARQYSGVKYNYWGQGTEVTVSS,high polyreactivity
2,QVQLVESGGGLVQAGGSLRLTCDASGSTFVNYAMGWYRQAPGKERELVAAITDSGGSTYYADSVKGRFTISRDNAKNTVYLQMNCLKPEDTAVYYCATEGYYYYTSYDYWGQGTQVTVSS,low polyreactivity
3,QVQLVESGGGLVQAGGSLRLTCSASGFIFRYYAKGWSRQAPGKERELVAAISTSGGSTYYADSVKGRFTISRDIAKNTVYLQMNSLKPEDTAVYYCAASTNTDRDFWGQGTQVTVSS,high polyreactivity
4,QVQLVESGGGLVQAGGSLRLTWAASGSIFTYYTRGWYRQAPGKERELVATIRYTGGNTYYADSVKGRFTISRDNAKNTVYLQMNILKPEDTAVYYCATGYSYRNVPTFRWLYYWGQGTQVTVSS,low polyreactivity
5,QVQLVESGGGLVQAGGSLRVSCAASGFIFVRNTMVWYRQAPGKERELVAGIRYSGGSTYYADSVKGRFTISRDNAKNTVFLQMNSQKTEDTAVYYCAARSHRRLMYYWGQGTQVNVSS,high polyreactivity
6,QVQLVESGGGLVQAGGSLRVSCAASGFTFPWYAMGWYRPAPGKERELVASISYRGDSTYYADSVKGRFTISRDNAKITVYLQMNSLKPEDTSVYYCNKRLDSYYLPGFDYWGQGTQVTVSS,low polyreactivity
7,QVQLVESGGGLVQAGGSLRVSCAASGFTLQRNTMGWYRQAPGKEREFVAAISVRGGSTYYADSVKGRFTISRDNAQNTVYLQMNSLKPEDTAVYYCAAVGRPTQYSYPYGYWGQGTQVTVSS,high polyreactivity
8,QVQLVESGGGLVQAGGSLRVSCAASGIIFNRYAMGWSREAPGKERELVAAITSSGGSTHYADSVKGRFTISRDNAKNTVYLQMNSLKPEDTAVYYCAKQFPYNYRYYLHYYYWGQGTQVTVSS,low polyreactivity
9,QVQLVESGGGLVQAGGSLRVSCAASGIIFRYNAMGWSRQAPGKESELVAAITSGGITKYADSVKGRFTISRDNAKNTVYLQMNSLKPEDTAVYYCNAEYGFDRAGSRGEYWGQCTQVTVSS,low polyreactivity
10,QVQLVESGGGLVQAGGSLRVSCAASGITSPYNAMGWYRQAPGKERELVAGITSGDSTDYADSVKGRFTISRDNAKNTVYLQMNSLKPEDTAVYYCAADSIRYCDYDYWGHGTQVTVSS,low polyreactivity
11,QVQLVESGGGLVQAGGSLRVSCAASGLIFYRYAMGWYRQAPGKERELVAAITTRGGSTYYADSVKGRFTISRDNAKITVYLQMNSLKPEDTAVYYCATYFRAKGYTGRYYYWGQGTQVTVSS,high polyreactivity
12,QVQLVESGGGLVQAGGSLRVSCAASGRIFDENAMGWYRPAPGKERELVAAIDWSGGSTYYADSVKGRFTISRDYAKNTVYLQMNRQKPEDTAVYYCNADYYYYVSLGWWSFIVSEYDYWGHGTQVTVSS,low polyreactivity
13,QVQLVESGGGLVQAGGSLRVSCAASGRNFYYYAMGGYRQAPGKERELVAAINWSGGGTYYADSVKGRFTISRDNAKNTVYFQMNSLKPEDTAVYYCAAGFRYRYYWGQGTQVTVSS,high polyreactivity
14,QVQLVESGGGLVQAGGSLRVSCAASGRTFRPNAMGWYRQAPGKERELVAAISGGGGSTYYADSVKGRFTISRDIAKNTVYLLMNSLKPEVTAVYYCNKVEQGRYGYWGQGTQVTVSS,high polyreactivity
15,QVQLVESGGGLVQAGGSLRVSCAASGRTSSINAMGWYREAPGKERELVAVITGRGGSTYYADSVKGRCTISRDNAKNTVYLQINSLKPEDTAVYYCAARRVPSVSGTYDYWGQGTQVTVSS,high polyreactivity
16,QVQLVESGGGLVQAGGSLRVSCAASGSIFQANAMGGYRQAPGKERELVAASRWSGGSTNYPDSVKGRFSISRDNAKNTVYLPMNSLKPEDTAVYYCAAKRFSSPYWEYYWGQGTQVTVSS,high polyreactivity
17,QVQLVESGGGLVQAGGSLRVSCAASGSNFLGYTMGWYRQAPGKERELVAAINSSGGSTYYADSVKGRFTISRDNAKNNVYLQMNSLKPEDTAVYYCADANSILLFDSWGQGTQVTVSS,low polyreactivity
